{
  "source": "paper doi:10.1101/2021.09.03.458882",
  "about": "(bioRxiv, 2021)",
  "molecular_target": "the molecule itself",
  "experiment": "FRET or BRET",
  "data": [
    {"protein": "Glucose oxidase (from Aspergillus niger) (enzyme, UniProt P13006 17-605, looked up, amine reactive dye Alexa Fluor 488 on one population and Alexa Fluor 532 on the other) LPHYIRSNGIEASLLTDPKDVSGRTVDYIIAGGGLTGLTTAARLTENPNISVLVIESGSYESDRGPIIEDLNAYGDIFGSSVDHAYETVELATNNQTALIRSGNGLGGSTLVNGGTWTRPHKAQVDSWETVFGNEGWNWDNVAAYSLQAERARAPNAKQIAAGHYFNASCHGVNGTVHAGPRDTGDDYSPIVKALMSAVEDRGVPTKKDFGCGDPHGVSMFPNTLHEDQVRSDAAREWLLPNYQRPNLQVLTGQYVGKVLLSQNGTTPRAVGVEFGTHKGNTHNVYAKHEVLLAAGSAVSPTILEYSGIGMKSILEPLGIDTVVDLPVGLNLQDQTTATVRSRITSAGAGQGQAAWFATFNETFGDYSEKAHELLNTKLEQWAEEAVARGGFHNTTALLIQYENYRDWIVNHNVAYSELFLDTAGVASFDVWDLLPFTRGYVHILDKDPYLHHFAYDPQYFLNELDLLGQAAATQLARNISNSGAMQTYFAGETIPGDNLAYDADLSAWTEYIPYHFRPNYHGVGTCSMMPKEMGGVVDNAARVYGVQGLRVIDGSIPPTQMSSHVMTVFYAMALKISDAILEDYASMQ", "values": [
      {"measurement": "binding result", "result": "binds"}
    ]}
  ]
}
